Consider four substances from patent US20250257112A1.

This assay concerns the target PTH receptor ("PTHIR"). Description: cell-based or functional assay.
The substance “PTH(1-84)-Fc with F34A, V35S (Fc fusion)” yielded a cAMP potency (EC50) of 0.28 nM.
The same measure for “PTH-66, PTH(1-74)-[F34A, V35S]-hFcLALA-deltaLys (Fc fusion)”: 0.24 nM.
The same measure for “PTH-67, PTH(1-64)-[F34A, V35S]-hFcLALA-deltaLys (Fc fusion)”: 0.24 nM.
The figure for “PTH-68, PTH(1-54)-[F34A, V35S]-hFcLALA-deltaLys (Fc fusion)” is 0.21 nM.
